# Measurements taken from paper doi:10.1101/2022.05.21.492554.
# Target: ACE2-Fc (UniProt Q9BYF1)
# Assay: SPR
# ACE2-Fc, sequence (Q9BYF1 18-740): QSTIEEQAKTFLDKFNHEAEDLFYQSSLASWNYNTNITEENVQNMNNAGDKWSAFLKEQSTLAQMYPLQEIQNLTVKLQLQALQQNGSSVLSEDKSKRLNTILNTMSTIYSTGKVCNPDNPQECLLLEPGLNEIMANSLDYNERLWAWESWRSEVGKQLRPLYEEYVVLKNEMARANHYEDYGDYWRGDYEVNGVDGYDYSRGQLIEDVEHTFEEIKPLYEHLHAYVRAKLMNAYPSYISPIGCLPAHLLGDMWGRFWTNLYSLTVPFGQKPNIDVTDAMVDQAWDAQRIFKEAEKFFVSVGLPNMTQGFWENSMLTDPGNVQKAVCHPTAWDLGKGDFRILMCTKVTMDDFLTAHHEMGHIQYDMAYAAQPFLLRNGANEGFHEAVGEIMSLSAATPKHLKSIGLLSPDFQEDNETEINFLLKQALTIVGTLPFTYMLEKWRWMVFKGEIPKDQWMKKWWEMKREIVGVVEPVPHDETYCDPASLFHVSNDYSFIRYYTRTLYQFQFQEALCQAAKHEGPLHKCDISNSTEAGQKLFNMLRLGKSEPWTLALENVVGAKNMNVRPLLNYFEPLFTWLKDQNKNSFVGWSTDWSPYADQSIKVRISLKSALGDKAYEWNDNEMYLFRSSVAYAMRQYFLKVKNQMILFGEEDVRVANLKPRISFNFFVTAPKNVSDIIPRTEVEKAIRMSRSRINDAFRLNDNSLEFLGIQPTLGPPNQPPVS
substance,measurement,value
Wuhan RBD,Kd,7.3 nM
same,koff,0.0051 s⁻¹
